According to patent US20230212312A1 (published 2023):

These binders were tested against T1, human transferrin receptor (recombinant, SPR) (human, UniProt P02786 89-760) (assay: SPR 25C).
T1 construct: also called huTfR; human transferrin receptor-biotinylated
T1 sequence (P02786 89-760 limits assumed): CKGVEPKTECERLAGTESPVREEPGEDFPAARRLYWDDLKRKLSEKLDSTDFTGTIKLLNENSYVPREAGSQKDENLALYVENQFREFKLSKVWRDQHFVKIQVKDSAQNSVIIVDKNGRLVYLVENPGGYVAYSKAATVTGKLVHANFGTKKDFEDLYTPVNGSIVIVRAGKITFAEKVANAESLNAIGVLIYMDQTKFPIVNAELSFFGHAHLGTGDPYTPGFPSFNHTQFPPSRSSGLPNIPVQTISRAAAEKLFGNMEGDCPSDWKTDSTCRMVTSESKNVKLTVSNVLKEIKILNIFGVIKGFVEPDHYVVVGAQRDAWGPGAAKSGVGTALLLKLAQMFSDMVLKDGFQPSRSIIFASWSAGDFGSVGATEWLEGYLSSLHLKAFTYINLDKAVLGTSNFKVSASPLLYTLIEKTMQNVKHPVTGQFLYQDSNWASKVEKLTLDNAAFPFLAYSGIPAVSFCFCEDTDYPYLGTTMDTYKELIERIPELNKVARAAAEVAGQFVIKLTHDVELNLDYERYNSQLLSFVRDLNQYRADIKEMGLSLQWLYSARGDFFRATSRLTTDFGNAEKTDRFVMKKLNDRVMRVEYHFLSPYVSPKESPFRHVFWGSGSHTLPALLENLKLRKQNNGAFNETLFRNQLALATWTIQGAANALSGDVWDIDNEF

Row | koff | Binder
1 | 0.00569 s⁻¹ | 2/99 VH0(rb)/VL1 (antibody, V domains shown) VH: QSMEESGGRLVTPGTPLTLTCTVSGFSLSSYAMSWVRQAPGKGLEWIGYIWSGGSTDYASWAKGRFTISKTSTTVDLKITSPTTEDTATYFCARRYGTSYPDYGDANGFDPWGPGTLVTVSS VL: DIQMTQSPSSLSASVGDRVTITCRASQSISSYLNWYQQKPGKAPKLLIYRASSLQSGVPSRFSGSGSGTDFTLTISSLQPEDFATYYCQQSYSSSNVDNTFGGGTKVEIK
2 | 0.000715 s⁻¹ | 2/99 VH23-DANG/VL2 (antibody, V domains shown) VH: QSMQESGPGLVKPSQTLSLTCTVSGFSLSSYAMSWIRQHPGKGLEWIGYIWSGGSTDYASWAKSRVTISKTSTTVSLKLSSVTAADTAVYYCARRYGTSYPDYGDANGFDPWGQGTLVTVSS VL: DIQMTQSPSSLSASVGDRVTITCRASQSISSYLNWYQQKPGKAPKLLIYRASTLASGVPSRFSGSGSGTDFTLTISSLQPEDFATYYCQQSYSSSNVDNTFGGGTKVEIK
3 | 0.00187 s⁻¹ | 2/99 VH23-DANG/VL12 (antibody, V domains shown) VH: QSMQESGPGLVKPSQTLSLTCTVSGFSLSSYAMSWIRQHPGKGLEWIGYIWSGGSTDYASWAKSRVTISKTSTTVSLKLSSVTAADTAVYYCARRYGTSYPDYGDANGFDPWGQGTLVTVSS VL: DIQMTQSPSSLSASVGDRVTITCRASQSISSYLAWYQQKPGKAPKLLIYRASTLASGVPSRFSGSRSGTDFTLTISSLQPEDFATYYCQQHYSSSNVDNTFGGGTKVEIK
4 | 0.00197 s⁻¹ | 2/99 VH7/VL6 (antibody, V domains shown) VH: QQLVETGGGLIQPGGSLRLSCAASGFSLSSYAMSWVRQAPGKGLEWIGYIWSGGSTDYASWAKGRFTISRDNSKNTLYLQMNSLRAEDTAVYYCARRYGTSYPDYGDANGFDPWGQGTLVTVSS VL: AIQLTQSPSSLSASVGDRVTITCRASQSISSYLSWYQQKPGKAPKLLIYRASTLASGVPSRFSGSGSGTDFTLTISSLQPEDFATYYCQQSYSSSNVDNTFGGGTKVEIK
5 | 0.00136 s⁻¹ | 2/99 VH0(rb)/VL4 (antibody, V domains shown) VH: QSMEESGGRLVTPGTPLTLTCTVSGFSLSSYAMSWVRQAPGKGLEWIGYIWSGGSTDYASWAKGRFTISKTSTTVDLKITSPTTEDTATYFCARRYGTSYPDYGDANGFDPWGPGTLVTVSS VL: AYQMTQSPSSLSASVGDRVTITCRASQSISSYLSWYQQKPGKAPKLLIYRASTLASGVPSRFSGSGSGTDFTLTISSLQPEDFATYYCQQSYSSSNVDNTFGGGTKVEIK
6 | 0.00399 s⁻¹ | 2/99 VH9/VL2 (antibody, V domains shown) VH: QQLLESGGGLVQPGGSLRLSCAASGFTFSSYAMSWVRQAPGKGLEWVGYIWSGGSTDYADSVKGRFTISRDNSKNTLYLQMNSLRAEDTAVYYCAKRYGTSYPDYGDANGFDPWGQGTLVTVSS VL: DIQMTQSPSSLSASVGDRVTITCRASQSISSYLNWYQQKPGKAPKLLIYRASTLASGVPSRFSGSGSGTDFTLTISSLQPEDFATYYCQQSYSSSNVDNTFGGGTKVEIK
7 | 0.00246 s⁻¹ | 2/99 VH1/VL9-NYA (antibody, V domains shown) VH: VQLVETGGGLIQPGGSLRLSCAASGFSLSSYAMSWVRQAPGKGLEWVGYIWSGGSTDYADSVKGRFTISRDNSKNTLYLQMNSLRAEDTAVYYCARRYGTSYPDYGDANGFDPWGQGTLVTVSS VL: AIQLTQSPSSLSASVGDRVTITCRASQSISSYLAWYQQKPGKAPKLLIYRASTLASGVPSRFSGSGSGTDFTLTISSLQPEDFATYYCQQNYASSNVDNTFGGGTKVEI
8 | 0.00203 s⁻¹ | 2/99 VH5/VL9-NYA (antibody, V domains shown) VH: QSMEETGGGLIQPGGSLRLSCAASGFSLSSYAMSWVRQAPGKGLEWVGYIWSGGSTDYADSVKGRFTISRDNSKNTLYLQMNSLRAEDTAVYYCARRYGTSYPDYGDANGFDPWGPGTLVTVSS VL: AIQLTQSPSSLSASVGDRVTITCRASQSISSYLAWYQQKPGKAPKLLIYRASTLASGVPSRFSGSGSGTDFTLTISSLQPEDFATYYCQQNYASSNVDNTFGGGTKVEI
9 | 0.00121 s⁻¹ | 2/99 VH7/VL9-NYA (antibody, V domains shown) VH: QQLVETGGGLIQPGGSLRLSCAASGFSLSSYAMSWVRQAPGKGLEWIGYIWSGGSTDYASWAKGRFTISRDNSKNTLYLQMNSLRAEDTAVYYCARRYGTSYPDYGDANGFDPWGQGTLVTVSS VL: AIQLTQSPSSLSASVGDRVTITCRASQSISSYLAWYQQKPGKAPKLLIYRASTLASGVPSRFSGSGSGTDFTLTISSLQPEDFATYYCQQNYASSNVDNTFGGGTKVEI
10 | 0.000986 s⁻¹ | 2/99 VH23-DANG/VL15 (antibody, V domains shown) VH: QSMQESGPGLVKPSQTLSLTCTVSGFSLSSYAMSWIRQHPGKGLEWIGYIWSGGSTDYASWAKSRVTISKTSTTVSLKLSSVTAADTAVYYCARRYGTSYPDYGDANGFDPWGQGTLVTVSS VL: DIVMTQSPDSLAVSLGERATINCKSSQSISSYLIWYQQKPGQPPKLLIYRASTLASGVPDRFSGSGSGTDFTLTISSLQAEDVAVYYCQQAYSSSNVDNTFGGGTKVEIK

Further lines, the binder ahead of its results:

Row | Binder | koff
11 | 2/99 VH0(rb)/VL3 (antibody, V domains shown) VH: QSMEESGGRLVTPGTPLTLTCTVSGFSLSSYAMSWVRQAPGKGLEWIGYIWSGGSTDYASWAKGRFTISKTSTTVDLKITSPTTEDTATYFCARRYGTSYPDYGDANGFDPWGPGTLVTVSS VL: AYQMTQSPSSLSASVGDRVTITCRASQSISSYLNWYQQKPGKAPKLLIYRASTLASGVPSRFSGSGSGTDFTLTISSLQPEDFATYYCQQSYSSSNVDNTFGGGTKVEIK | 0.00132 s⁻¹
12 | 2/99 VH23-DANG/VL6 (antibody, V domains shown) VH: QSMQESGPGLVKPSQTLSLTCTVSGFSLSSYAMSWIRQHPGKGLEWIGYIWSGGSTDYASWAKSRVTISKTSTTVSLKLSSVTAADTAVYYCARRYGTSYPDYGDANGFDPWGQGTLVTVSS VL: AIQLTQSPSSLSASVGDRVTITCRASQSISSYLSWYQQKPGKAPKLLIYRASTLASGVPSRFSGSGSGTDFTLTISSLQPEDFATYYCQQSYSSSNVDNTFGGGTKVEIK | 0.00116 s⁻¹
13 | 2/99 VH0(rb)/VL2 (antibody, V domains shown) VH: QSMEESGGRLVTPGTPLTLTCTVSGFSLSSYAMSWVRQAPGKGLEWIGYIWSGGSTDYASWAKGRFTISKTSTTVDLKITSPTTEDTATYFCARRYGTSYPDYGDANGFDPWGPGTLVTVSS VL: DIQMTQSPSSLSASVGDRVTITCRASQSISSYLNWYQQKPGKAPKLLIYRASTLASGVPSRFSGSGSGTDFTLTISSLQPEDFATYYCQQSYSSSNVDNTFGGGTKVEIK | 0.00125 s⁻¹
14 | 2/99 VH2/VL9-NYA (antibody, V domains shown) VH: EVQLVETGGGLIQPGGSLRLSCAASGFSLSSYAMSWVRQAPGKGLEWVGYIWSGGSTDYADSVKGRFTISRDNSKNTLYLQMNSLRAEDTAVYYCARRYGTSYPDYGDANGFDPWGQGTLVTVSS VL: AIQLTQSPSSLSASVGDRVTITCRASQSISSYLAWYQQKPGKAPKLLIYRASTLASGVPSRFSGSGSGTDFTLTISSLQPEDFATYYCQQNYASSNVDNTFGGGTKVEI | 0.00221 s⁻¹
15 | 2/99 VH8/VL9-NYA (antibody, V domains shown) VH: QQLVETGGGLIQPGGSLRLSCAASGFSLSSYAMSWVRQAPGKGLEWIGYIWSGGSTDYASWAKGRFTISKTSTTLYLQMNSLRAEDTAVYYCARRYGTSYPDYGDANGFDPWGQGTLVTVSS VL: AIQLTQSPSSLSASVGDRVTITCRASQSISSYLAWYQQKPGKAPKLLIYRASTLASGVPSRFSGSGSGTDFTLTISSLQPEDFATYYCQQNYASSNVDNTFGGGTKVEI | 0.00101 s⁻¹
16 | 2/99 VH6/VL9-NYA (antibody, V domains shown) VH: QQLVETGGGLIQPGGSLRLSCAASGFSLSSYAMSWVRQAPGKGLEWIGYIWSGGSTDYADSVKGRFTISRDNSKNTLYLQMNSLRAEDTAVYYCARRYGTSYPDYGDANGFDPWGQGTLVTVSS VL: AIQLTQSPSSLSASVGDRVTITCRASQSISSYLAWYQQKPGKAPKLLIYRASTLASGVPSRFSGSGSGTDFTLTISSLQPEDFATYYCQQNYASSNVDNTFGGGTKVEI | 0.00141 s⁻¹
